Experimental data as given in US20180362604A1 (SHIRE HUMAN GENETIC THERAPIES, published 2018).

T1: Myostatin (UniProt O14793 267-375)
T1 construct: bought protein; also called GDF-8; MST
T1 sequence (looked up): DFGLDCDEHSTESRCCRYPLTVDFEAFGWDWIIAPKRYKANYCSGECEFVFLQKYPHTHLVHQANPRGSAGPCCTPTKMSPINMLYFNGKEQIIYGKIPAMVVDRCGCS

T2: Activin A (UniProt P08476 311-426)
T2 construct: bought protein
T2 sequence (looked up): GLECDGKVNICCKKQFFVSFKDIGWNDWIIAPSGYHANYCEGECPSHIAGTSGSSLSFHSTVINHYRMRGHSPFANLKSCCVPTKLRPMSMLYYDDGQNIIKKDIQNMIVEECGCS

B1: FS315K(76,81,82)E-mFc (Fc fusion)
chain: GNCWLRQAKNGRCQVLYKTELSKEECCSTGRLSTSWTEEDVNDNTLFKWMIFNGGAPNCIPCKETCENVDCGPGKECRMNEENKPRCVCAPDCSNITWKGPVCGLDGKTYRNECALLKARCKEQPELEVQYQGRCKKTCRDVFCPGSSTCVVDQTNNAYCVTCNRICPEPASSEQYLCGNDGVTYSSACHLRKATCLLGRSIGLAYEGKCIKAKSCEDIQCTGGKKCLWDFKVGRGRCSLCDELCPDSKSDEPVCASDNATYASECAMKEAACSSGVLLEVKHSGSCNSISEDTEEEEEDEDQDYSFPISSILEW
notes: K76, K81, K82 to glutamic acid, fused with murine Fc; also called FS-EEE-mFc; not shown: murine Fc (mFc)
B2: ActRIIB-Fc (Fc fusion, UniProt Q13705 19-134, looked up, not shown: a dimerising Fc or GST)
chain: SGRGEAETRECIYYNANWELERTNQSGLERCEGEQDKRLHCYASWRNSSGTIELVKKGCWLDDFNCYDRQECVATEENPQVYFCCCEGNFCNERFTHLPEAGGPEVTYEPPPTAPT

What was measured:
Myostatin [1] = target: T1, Myostatin; experiment: SPR (BIAcore), myostatin as analyte
Myostatin [2] = target: T1, Myostatin; experiment: surface plasmon resonance
Activin A [3] = target: T2, Activin A; experiment: surface plasmon resonance
Myostatin [4] = target: T1, Myostatin; experiment: cell-based or functional assay
Activin A [5] = target: T2, Activin A; experiment: cell-based or functional assay

Binder	Kd (Myostatin [1]) [nM]	Kd (Myostatin [2]) [nM]	Kd (Activin A [3]) [nM]	Myostatin IC50, cell-based assay for SMAD pathway (A204 luciferase reporter) (Myostatin [4]) [nM]	Activin A IC50, cell-based assay for SMAD pathway (A204 luciferase reporter) (Activin A [5]) [nM]
B1	0.0148	0.0075	0.0061	0.7	0.8
B2				0.5	0.5
